Substitutions are numbered along the chain they refer to.
B1: 203/204: human anti-MBG antibody, VH SEQ ID NO: 30, VL SEQ ID NO: 31 (antibody, listed as Homo sapiens, V domains shown)
VH: QLQLQESGPGLVKPSETLSLTCTVSGGSISSYYWGWIRQPPGKGLEWIGSIYYSGSTYYNPSLKSRVTISVDTSKNQFSLQLKSVTPEDTAVYYCARVRPPAATFDYWGQGTLVTVSS
VL: QSVVTQPPSVSAAPGQKVSISCSGGSSNIGNNYVSWYQQLPGTAPRLLIYENNNRPSGIPDRFSGSKSGTSATLGITGLQTGDEADYYCGTWDSSLRAVVFGGGTKLTVL
B2: 2A-5A: human anti-MBG antibody, VH SEQ ID NO: 100, VL SEQ ID NO: 101 (antibody, listed as Homo sapiens)
VH: QVQLQESGPGLVKPSETLSLTCTVSGGSISSSSYYWGWIRQPPGKGLEWIGSIYYSGSTYYNPSLKSRVTISVDTSKNQFSLKLSSVTAADTAVYYCARFSRGGPFLWGRGTLVTVSS
light: QSVVTQPPSVSAAPGQKVTISCSGSSSNIGSYSVSWYQQLPGTAPKLLIYDNNKRPSGIPDRFSGSKSGTSATLGITGLQTGDEADYYCGTWDSSLSAYVFGSGTKVTVLGQPKANPTVTLFPPSSEELQANKATLVCLISDFYPGAVTVAWKADGSPVKAGVETTKPSKQSNNKYAASSYLSLTPEQWKSHRSYSCQVTHEGSTVEKTVAPTECS
B3: 238/239: human anti-MBG antibody, VH SEQ ID NO: 41, VL SEQ ID NO: 42 (antibody, listed as Homo sapiens, V domains shown)
VH: QLQLQESGPGLVKPSETLSLTCTVSGGSISSSSYYWGWIRQPPGKGLEWIGSIYYSGSTYYNPSLKSRVTISVDTSKNQFSLKLSSVTAADTAVYYCARVVVARTGTTISWFDPWGQGTLVTVSS
VL: QAVLTQPSSLSASPGASASLTCTLRSGINVDTYRIYWYQQKPGSPPQYLLRYKSDSDKQQGSGVPSRFSGSKDASANAGILLISGLQSEDEADYYCVIWHSSAWVFGGGTKLTVL
B4: H3L1: humanized anti-MBG antibody, VH H3 (SEQ ID NO: 11) with VL L1 (SEQ ID NO: 12) (antibody, V domains shown)
VH: EVQLQESGPGLVKPSETLSLTCTVSGDSITSGYWNWIRQPPGKGLEYMGYISYSGTTYYNPSLKSRITISRDTSKNQYSLKLSSVTAADTAVYYCARARYGYGFDYWGQGTLVTVSS
VL: DVVMTQSPLSLPVTLGQPASISCRSSQSIVHSNRNTYLEWFQQRPGQSPRRLIYKVSNRFSGVPDRFSGSGSGTDFTLKISRVEAEDVGVYYCFQGSHVPLTFGGGTKVEIK
modifications: Humanized VH sequence; Humanized VL sequence
B5: H2L1: humanized anti-MBG antibody, VH H2 (SEQ ID NO: 10) with VL L1 (SEQ ID NO: 12) (antibody, V domains shown)
VH: B4 VH with M48I, I67V, Y78F
VL: B4 VL
modifications: Humanized VH sequence; Humanized VL sequence
B6: H2L2: humanized anti-MBG antibody, VH H2 (SEQ ID NO: 10) with VL L2 (SEQ ID NO: 13) (antibody, V domains shown)
VH: B4 VH with M48I, I67V, Y78F
VL: B4 VL with F41Y, R51L
modifications: Humanized VH sequence; Humanized VL sequence
B7: 205/207: human anti-MBG antibody, VH SEQ ID NO: 53, VL SEQ ID NO: 54 (antibody, listed as Homo sapiens, V domains shown)
VH: QLQLQESGPGLVKPSETLSLTCTVSGGSISSSSYYWGWIRQPPGKGLEWIGSIYYSGSTYYNPSLKSRVTISVDTSKNQFSLKLSSVTAADTAVYYCARFHTWAPRAFDIWGQGTMVTVSS
VL: QSVVTQPPSVSAAPGQEVTISCSGSSSNIGNNYVSWYQQLPGTAPKLLIYDNNKRPSGIPDRFSGSKSGTSATLGITGLQTGDEADYYCGTWDSSLSALFGGGTKLTVL
B8: R4CE-10H: human anti-MBG antibody, VH SEQ ID NO: 80, VL SEQ ID NO: 81 (antibody, listed as Homo sapiens)
VH: QLQLQESGPGLVKPSQTLSLTCTVSGGSISSGGYYWSWIRQPPGKGLEWIGSIYHSGSTYYNPSLKSRVTISVDTSKNQFSLKLSSVTAADTAVYYCARVMYYYGSGSPYWYFDLWGRGTLVTVSS
light: QSVVTQPPSVSAAPGQKVTISCSGSSSNIGKNFVSWYQQFPGTAPKFLIYENSKRPSGIPDRISGSKSGTSATLAITGLQTGDEADYYCGTWDSSLSAVVFGGGTKLTVLSQPKAAPSVTLFPPSSEELQANKATLVCLISDFYPGAVTVAWKADSSPVKAGVETTTPSKQSNNKYAASSY
B9: 1B-6C: human anti-MBG antibody, VH SEQ ID NO: 87, VL SEQ ID NO: 88 (antibody, listed as Homo sapiens)
VH: QVQLQESGPGLVKPSETLSLTCTVSGGSISSSSYYWGWIRQPPGKGLEWIGSIYYSGSTYYNPSLKSRVTISLDTSKNQFSLKLSSLTAADTAVYYCARVPAIRSSAIFDYWGQGTLVTVSS
light: QSVVTQPPSVSAAPGQKVTISCFGSRSNIGNNYVSWYQQFPGTAPQLLIFDNNKRPSGIPDRFSGSKSGTSASLGITGVQTGDEAEYYCGAWDSSLSAGAVFGGGTKLTVLGQPKAAPSVTLFPPSSEELQANKATLVCLISDFYPGAVTVAWKADSSPVKAGVETTTPSKQSNNKYAASSYLSLTPEQWKSHRSYSCQVTHEGSTVEKTVAPTECS

Experiments:
[1] = ELISA avidity estimate on MBG-BSA; type: binding; conditions: wells coated with 2 μg/ml MBG-BSA; IgG
Protocol: (§1) The avidity of anti-MBG antibodies for MBG was estimated in an ELISA. Wells of a microtiter plate were coated with 2 μg/ml of either MBG-bovine serum albumin (BSA) or MBG-keyhole limpet hemocyanin (KLH). The wells were then blocked with 1% BSA. A test IgG antibody at varying concentrations (typically from about 0.0001 nM to about 25 nM) was added to the wells. The test IgG bound to immobilized MBG was detected with an anti-human Fc, horseradish peroxidase (HRP)-conjugated secondary antibody (Jackson ImmunoResearch). After washing of the wells, an appropriate HRP reagent (e.g., TMB ultra, Thermo Fisher) was added to the wells. Optical density (OD) at 450 nm was measured by a microplate reader. The concentration of test antibody at the midpoint of the binding curve is an estimate of avidity for MBG.

[2] = Competitive ELISA, relative CTS specificity, DIG as competitor; type: binding; conditions: competition with immobilized MBG-BSA; normalized to MBG = 100%
Protocol: (§2) The specificity (relative affinity) of anti-MBG antibodies for MBG relative to various cardiotonic steroids (CTSs) was determined in a competitive ELISA. Each anti-MBG antibody was tested for its binding to immobilized MBG in the presence of free MBG, resibufogenin (RBG), cinobufagin (CINO), ouabain (OUB) or digoxin (DIG) as a competitor. A constant amount of an anti-MBG antibody (typically 1-5 μg/mL) and varying concentrations of each CTS (from 10^−12M to 10^−5M) were pre-incubated before being added to the MBG-BSA-coated wells. After washing of the wells, an anti-human Fc, HRP-conjugated secondary antibody (at 1:5000 dilution) was added to the wells and incubated at 37° C. for 1 hr. After washing of the wells, an appropriate HRP reagent (e.g., TMB ultra, Thermo Fisher) was added to the wells. OD at 450 nm was measured by a microplate reader. MBG at 10 μM was assumed to be 100% competed, and MBG at 1 pM was assumed to be 0% competed. The data was plotted as a titration of antibody-antigen binding relative to free CTS concentration in the competition reaction to determine the free CTS concentration (μM) giving 50% maximal binding of antibody to immobilized MBG. The relative specificity of an antibody for a CTS was normalized to MBG=100%.

[3] = Competitive ELISA, relative CTS specificity, OUB as competitor; type: binding; conditions: competition with immobilized MBG-BSA; normalized to MBG = 100%
Protocol: as §2

[4] = Competitive ELISA, relative CTS specificity, CINO as competitor; type: binding; conditions: competition with immobilized MBG-BSA; normalized to MBG = 100%
Protocol: as §2

[5] = Competitive ELISA, free CTS competitors overall (summary and footnote); type: binding; conditions: competitors RBG, CINO, OUB, DIG; Table 2
Protocol: as §2

[6] = ELISA avidity estimate on MBG-KLH; type: binding; conditions: wells coated with 2 μg/ml MBG-KLH; IgG
Protocol: as §1

[7] = Competitive ELISA, relative CTS specificity, RBG as competitor; type: binding; conditions: competition with immobilized MBG-BSA; normalized to MBG = 100%
Protocol: as §2

[8] = Competitive ELISA, relative CTS specificity, free MBG as competitor; type: binding; conditions: competition with immobilized MBG-BSA; normalized to MBG = 100%
Protocol: as §2

[9] = tested on: PKC-δ in the nucleus of primary rat cardiac fibroblasts; assay: Inhibition of MBG-induced PKC-δ nuclear translocation (Western blot); conditions: MBG 2 nM; nuclei isolated 30 min later; FIG. 2a
Protocol: MBG was incubated with an anti-MBG antibody prior to addition to cultured primary rat cardiac fibroblasts. Nuclei were isolated 30 min later and analyzed for amount of PKC-6.

[10] = tested on: human umbilical cord venous endothelial cells (HUVEC); assay: Reversal of MBG inhibition of HUVEC cell proliferation (3H-thymidine); type: cell-based; conditions: MBG 2 nM, 48 hr
Protocol: MBG (2 nM) was incubated with an antibody (20 μg/mL in FIG. 3a with human anti-MBG mAbs, or varying concentrations (2.5-10 μg/mL) in FIG. 3b with humanized anti-MBG mAbs) prior to addition to cultured human umbilical cord venous endothelial cells (HUVEC). After 48 hr, DNA synthesis was assessed by incorporation of ^3H-thymidine.
HUVEC cells in endothelial cell growth medium were plated onto 96-well plates. The next day, the cells were pretreated with various antibodies (2.5-20 μg/mL) and then incubated with 2 nM MBG for 48 hr. [^3H]-Thymidine was added to each well. [^3H]-Thymidine-labeled DNA was assayed by harvesting the cells and assaying for ^3H using a PerkinElmer Wallac Tailux liquid scintillation counter. […] Means were tested for significance using Student's t-test.

| Molecule | Rel. CTS Specificity as % of MBG Binding: DIG [2] [%] | Rel. CTS Specificity as % of MBG Binding: OUB [3] [%] | Rel. CTS Specificity as % of MBG Binding: CINO [4] [%] | reaction with CTS competitor molecules [5] | Rel. CTS Specificity as % of MBG Binding: MBG [8] [%] | amount of PKC-δ in the nucleus, MBG plus antibody [9] | further results |
| --- | --- | --- | --- | --- | --- | --- | --- |
| B1 | 0 | 0 | 0 | reacted with CTS competitor RBG | 100 |  | Estimated avidity (KA) (antibody concentration at 50% maximal binding to antigen, or EC50), Antigen 1 (MBG-BSA) [1]: 0.32 nM; Estimated avidity (KA) (antibody concentration at 50% maximal binding to antigen, or EC50), Antigen 2 (MBG-KLH) [6]: 0.20 nM; Rel. CTS Specificity as % of MBG Binding: RBG [7]: 10% |
| B2 | 2.5 | 0 | 2.5 | reacted with the CTS competitors RBG, CINO and DIG | 100 |  | Rel. CTS Specificity as % of MBG Binding: RBG [7]: 10% |
| B3 |  | 10 |  | reacted with the CTS competitor OUB | 100 | to a lesser extent | MBG inhibition of HUVEC cell proliferation, human mAbs ([10]; antibody 20 μg/mL, FIG. 3a): significantly reduced |
| B4 |  |  |  |  |  | reduced |  |
| B5 |  |  |  |  |  | to a lesser extent |  |
| B6 |  |  |  |  |  | to a lesser extent | MBG inhibition of HUVEC cell proliferation, humanized mAbs ([10]; antibody 2.5-10 μg/mL, FIG. 3b): significantly reduced |
| B7 | 0 | 0 | 0 |  | 100 |  |  |
| B8 |  |  |  |  | 100 |  |  |
| B9 |  |  |  |  | 100 |  |  |
